Assay results published in patent publication US20240425848.

Biological target: histone H3 trimethylated at lysine 9 (H3K9me3) in native chromatin of Caki-1 cells (UniProt P68431)

Substance	Ec: global enrichment of the ATAC-seq tagmentation signal over H3K9me3-marked regions, log2(ratio) over genomic Input, Caki-1 [Continued) e]	Mc: modal enrichment of the ATAC-seq tagmentation signal over H3K9me3-marked regions, log2(ratio) over genomic Input, Caki-1 [Continued) e]	stated: tagmentation signal over H3K9me3 ChIP-seq domains (ATAC-seq on permeabilized Caki-1 nuclei)	tagmentation of native chromatin on permeabilized nuclei (ATAC-seq)	stated: no tagmentation signal over H3K9me3 ChIP-seq domains (ATAC-seq on permeabilized Caki-1 nuclei)	Ec: global enrichment of the ATAC-seq tagmentation signal over H3K9me3-marked regions, log2(ratio) over genomic Input, Caki-1; subscript printed as 0, first E line of the box	GET-seq, sequential Tn5 then TnH tagmentation, compared with ChIP-seq profiles	Mc: modal enrichment of the ATAC-seq tagmentation signal over H3K9me3-marked regions, log2(ratio) over genomic Input, Caki-1; subscript printed as 0, first M line of the box, agrees with the mode of t	TnH ATAC-seq compared with H3K9me3 and H3K4me3 ChIP-seq	enrichment of tagmentation signal over H3K9me3-marked regions, compared among TnH #1-4	scGET-seq pseudobulk compared with H3K9me3 and H3K4me3 ChIP-seq	stated: tagmentation profile follows the H3K9me3 ChIP-seq profile (ATAC-seq, Caki-1)	stated: tagmentation profile follows the H3K9me3 ChIP-seq profile (bulk ATAC-seq with TnH alone and scGET-seq pseudo-bulk, Caki-1) [Continued) g]
TnH #4: 112aaCD (HP1α)-5×(TGS)-Tn5	Ec= -0.55	Mc= 0.07	TnH#4 track (scale 0-2.7): signal above baseline over the H3K9me3 domain at about 42.4-43.4 Mbp of Chr. 19, where the Tn5 and Nextera tracks are near zero; the sharp peaks at H3K4me3 positions stand out more than in TnH#3 and TnH#1	hybrid Tn5 constructs indeed cut and inserted oligos in regions enriched for H3K9me3									
TnH #1: 93aaCD (HP1α)-3×(TGS)-Tn5	Ec= 0.01	Mc= 0.19	TnH#1 track (scale 0-6.6): continuous raised signal over the H3K9me3 domain at about 42.4-43.4 Mbp of Chr. 19, where the Tn5 and Nextera tracks are near zero, and lower continuous signal at about 43.8-44.6 Mbp; also sharp peaks at H3K4me3 positions	hybrid Tn5 constructs indeed cut and inserted oligos in regions enriched for H3K9me3									
Nextera	Ec= -3.16	Mc= -0.89			Nextera track (scale 0-9.3): near zero over the H3K9me3 domain at about 42.4-43.4 Mbp and only small spikes at about 43.8-44.6 Mbp of Chr. 19; peaks where the H3K4me3 track has peaks								
TnH #3: 112aaCD (HP1α)-3×(TGS)-Tn5	Ec= 0.25	Mc= 0.31	TnH#3 track (scale 0-8.0): continuous raised signal over the H3K9me3 domain at about 42.4-43.4 Mbp of Chr. 19, where the Tn5 and Nextera tracks are near zero, and lower continuous signal at about 43.8-44.6 Mbp; also sharp peaks at H3K4me3 positions (e.g. about 45.5 Mbp)	hybrid Tn5 constructs indeed cut and inserted oligos in regions enriched for H3K9me3		E0= 0.25	TnH mimicked more closely H3K9me3 data, and to a lesser extent H3K4me3	M0= 0.31	TnH captures both H3K4me3- and H3K9me3-enriched regions, unlike Tn5 which closely matches H3K4me3 profiles	We identified the construct TnH #3, from now on TnH, as the most efficient	TnH was able to target regions positive for H3K9me3 as well as H3K4me3	TnH track (scale 0-15): broad raised signal where the H3K9me3 track has its domains, highest at about 54.5-55.7 Mbp and raised at about 59-62.5 Mbp of Chr.12, where the Tn5 track is near zero; Input (scale 0-10) flat near 0	tnH track (scale 0-15): broad raised signal of about half the scale or more at about 33-35, 36.3-37.5 and 38.0-38.9 Mbp of chr1, over the H3K9me3 domains; tnH pseudobulk track (scale 0-15): the same three domains raised, somewhat lower; both also show small peaks at H3K4me3 positions; Input (scale 0
TnH #2: 93aaCD (HP1α)-5×(TGS)-Tn5	Ec= -0.41	Mc= 0.07	TnH#2 track (scale 0-7.7): signal above baseline over the H3K9me3 domain at about 42.4-43.4 Mbp of Chr. 19, where the Tn5 and Nextera tracks are near zero; the sharp peaks at H3K4me3 positions stand out more than in TnH#3 and TnH#1	hybrid Tn5 constructs indeed cut and inserted oligos in regions enriched for H3K9me3									
